Literature values as cited in PMC10317158.

Key:
[1] = molecular target: Mpp6 NIM (Saccharomyces cerevisiae) (UniProt P53725)
[2] = molecular target: Sen1 NIM2 (Saccharomyces cerevisiae) (UniProt Q00416)
[3] = molecular target: RNA polymerase II CTD pSer2/5 peptide CTD (Saccharomyces cerevisiae) (UniProt P04050)
[4] = molecular target: RNA polymerase II CTD pSer2 peptide CTD (Saccharomyces cerevisiae) (UniProt P04050)
[5] = molecular target: RNA polymerase II CTD pSer2/7 peptide CTD (Saccharomyces cerevisiae) (UniProt P04050)
[6] = molecular target: RNA polymerase II CTD pThr4 peptide CTD (Saccharomyces cerevisiae) (UniProt P04050)

Nrd1 CID (from UniProt P53617)
Kd [1]: 13.6 µM | Kd [2]: 1750 nM | Kd [3]: 16 µM

Pcf11 CID (from UniProt P39081)
Kd [4]: 115 µM

Rtt103 CID (from UniProt Q05543)
Kd [5]: 1600 nM | Kd [6]: 6 µM
